Experimental findings from patent publication US20040214763A1 (AVENTIS PHARMA S A, published 2004) are described below.

The target of assay [1] is p38 protein fused with an N-terminal myc epitope, expressed from pcDNA3-myc-P38 (human) (UniProt Q13155). In words: cell-based or functional assay.
Assay [2] addresses T1, p38 protein (product of the human gene JTV1) fused to the transactivating domain of GAL4, from library … (yeast; human, UniProt Q13155 1-320, limits assumed).
T1 construct: also called plasmid isolated during the screening of the two-hybrid library; fragment corresponding to the p38 protein
T1 sequence: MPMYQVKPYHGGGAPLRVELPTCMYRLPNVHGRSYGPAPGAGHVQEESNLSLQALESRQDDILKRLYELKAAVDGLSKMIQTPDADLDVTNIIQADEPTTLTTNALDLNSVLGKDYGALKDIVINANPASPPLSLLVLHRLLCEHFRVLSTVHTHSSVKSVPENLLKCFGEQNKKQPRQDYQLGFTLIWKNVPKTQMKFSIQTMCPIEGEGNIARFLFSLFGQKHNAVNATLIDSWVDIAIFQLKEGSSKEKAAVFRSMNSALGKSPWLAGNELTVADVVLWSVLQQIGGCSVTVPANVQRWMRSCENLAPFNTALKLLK
Briefly: yeast two-hybrid, b-Gal activity assay in strain L40. The method, then: A sheet of nitrocellulose is pre-placed on the Petri dish containing the separated yeast clones. This sheet is then immersed in liquid nitrogen for 30 seconds in order to rupture the yeasts and thus to release the b-galactosidase activity. After thawing, the sheet of nitrocellulose is placed, colonies facing upwards, in another Petri dish containing a Whatman paper presoaked in 1.5 ml of PBS solution (60 mM Na2HPO4, 40 mM NaH2PO4, 10 mM KCl, 1 mM MgSO4, pH 7) containing 15 μl of X-Gal (5-bromo-4-chloro-3-indolyl-b-D-galactoside) containing 40 mg/ml of N,N-dimethylformamide. The dish is then placed in an incubator at 37° C. The assay is deemed positive when the colonies on the membrane turn blue after 12 hours.
In order to determine the specificity of interaction between the fragment corresponding to the p38 protein and the central region of parkin, we carried out a two-hybrid test for specific interaction with other, non-relevant proteins. To carry out this test, we transformed the L40 strain with the control plasmids plex9-cAPP or pLex9-HaRasVal12 in place of the plasmid pLex9-Parkin (135-290), encoding, respectively, the cytoplasmic domain of APP or the HaRasVal12 protein, which are fused to the DNA-binding domain of LexA and with the plasmid isolated during the screening of the two-hybrid library. […]

Ends that are not written are not given here.

On to “human parkin stably overexpressed in the SH-SY5Y-VI clone (from UniProt O60260 1-465) (enzyme)”, for which, in assay [1], the proportion of transfected cells exhibiting p38 aggregates was determined as 8%.

B1: cytoplasmic domain of the APP protein fused to LexA, expressed from pLex9-cAPP (other, UniProt P05067 723-770, looked up)
chain: LKKKQYTSIHHGVVEVDAAVTPEERHLSKMQQNGYENPTYKFFEQMQN
modifications: also: fused to LexA
notes: domain: cytoplasmic domain; Control bait in the two-hybrid specificity test; also called pLex-cAPP; not shown: bacterial repressor LexA as encoded by vector pLex9 (pBTM116)
Turning to B1, the binding result in assay [2] is listed as “no binding”.
